Source: PMC4592971

Biological target: full length RhoA (Q63L) as it stands in the constitutively GTP-loaded DORA-RhoA biosensor (UniProt P61586)
Test: FRET or BRET; FRET inside the single-chain DORA-RhoA biosensor (CFP on RhoA, YFP on the PKN1 domain) in living HeLa cells; single cell emission spectra and frequency domain FLIM of the donor (75.1 MHz)

Chain of UniProt P61586 (P61586 whole entry Q63L, the tested form may be a part): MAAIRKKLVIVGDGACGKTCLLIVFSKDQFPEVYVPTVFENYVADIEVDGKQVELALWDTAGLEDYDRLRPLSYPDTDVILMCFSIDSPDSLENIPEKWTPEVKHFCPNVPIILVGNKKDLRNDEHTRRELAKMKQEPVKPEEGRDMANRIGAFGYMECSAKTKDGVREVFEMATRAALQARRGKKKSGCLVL

## Rho binding domain of PKN1 (cpPKN) as it stands in the DORA-RhoA biosensor (domain or fragment)
  median donor fluorescence lifetime (FLIM): 2.4 ns
